{
  "source": "patent US8785600B2",
  "about": "“Anti-GCC antibody molecules and related compositions and methods” (Millennium Pharmaceuticals, Inc., priority 2009, dated 2014)",
  "key": {"[1]": {"target": "T1, mouse GCC (Mus musculus, UniProt Q3UWA6)", "T1 sequence (Q3UWA6 20-1072)": "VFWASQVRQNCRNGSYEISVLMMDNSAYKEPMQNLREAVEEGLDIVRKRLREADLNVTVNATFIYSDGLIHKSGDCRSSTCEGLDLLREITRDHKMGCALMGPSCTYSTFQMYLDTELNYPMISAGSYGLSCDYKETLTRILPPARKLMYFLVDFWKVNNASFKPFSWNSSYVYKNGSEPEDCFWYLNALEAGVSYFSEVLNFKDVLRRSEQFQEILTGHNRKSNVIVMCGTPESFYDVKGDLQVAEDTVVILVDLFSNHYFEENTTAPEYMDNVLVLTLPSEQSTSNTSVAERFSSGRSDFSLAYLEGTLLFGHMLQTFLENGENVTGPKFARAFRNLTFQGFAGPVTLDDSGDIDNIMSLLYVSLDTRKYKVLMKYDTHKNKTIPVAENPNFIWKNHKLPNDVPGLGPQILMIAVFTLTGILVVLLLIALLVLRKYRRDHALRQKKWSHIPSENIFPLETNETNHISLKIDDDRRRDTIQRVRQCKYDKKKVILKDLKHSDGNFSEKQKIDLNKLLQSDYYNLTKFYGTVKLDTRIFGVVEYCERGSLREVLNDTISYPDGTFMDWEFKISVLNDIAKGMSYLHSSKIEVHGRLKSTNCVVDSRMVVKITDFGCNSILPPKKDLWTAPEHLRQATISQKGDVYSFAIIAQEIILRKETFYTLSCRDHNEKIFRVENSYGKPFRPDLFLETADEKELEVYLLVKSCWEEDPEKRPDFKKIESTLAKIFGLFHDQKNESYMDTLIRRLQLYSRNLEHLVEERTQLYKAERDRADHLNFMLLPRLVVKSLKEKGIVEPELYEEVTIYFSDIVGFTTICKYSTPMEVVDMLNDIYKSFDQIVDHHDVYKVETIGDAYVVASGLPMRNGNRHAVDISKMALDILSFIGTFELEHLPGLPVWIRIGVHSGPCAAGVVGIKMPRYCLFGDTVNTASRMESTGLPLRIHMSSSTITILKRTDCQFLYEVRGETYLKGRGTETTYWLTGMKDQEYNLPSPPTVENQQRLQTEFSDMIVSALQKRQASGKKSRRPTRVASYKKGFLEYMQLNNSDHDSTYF", "experiment": "Cross-reactivity with GCC orthologs (ELISA)", "assay_type": "binding", "source_text": "(§1) FIG. 4 depicts ELISA binding assays to test antibody cross-reactivity of GCC orthologs."}, "[2]": {"target": "T2, rat GCC (Rattus norvegicus, UniProt P23897)", "T2 sequence (P23897 23-1072)": "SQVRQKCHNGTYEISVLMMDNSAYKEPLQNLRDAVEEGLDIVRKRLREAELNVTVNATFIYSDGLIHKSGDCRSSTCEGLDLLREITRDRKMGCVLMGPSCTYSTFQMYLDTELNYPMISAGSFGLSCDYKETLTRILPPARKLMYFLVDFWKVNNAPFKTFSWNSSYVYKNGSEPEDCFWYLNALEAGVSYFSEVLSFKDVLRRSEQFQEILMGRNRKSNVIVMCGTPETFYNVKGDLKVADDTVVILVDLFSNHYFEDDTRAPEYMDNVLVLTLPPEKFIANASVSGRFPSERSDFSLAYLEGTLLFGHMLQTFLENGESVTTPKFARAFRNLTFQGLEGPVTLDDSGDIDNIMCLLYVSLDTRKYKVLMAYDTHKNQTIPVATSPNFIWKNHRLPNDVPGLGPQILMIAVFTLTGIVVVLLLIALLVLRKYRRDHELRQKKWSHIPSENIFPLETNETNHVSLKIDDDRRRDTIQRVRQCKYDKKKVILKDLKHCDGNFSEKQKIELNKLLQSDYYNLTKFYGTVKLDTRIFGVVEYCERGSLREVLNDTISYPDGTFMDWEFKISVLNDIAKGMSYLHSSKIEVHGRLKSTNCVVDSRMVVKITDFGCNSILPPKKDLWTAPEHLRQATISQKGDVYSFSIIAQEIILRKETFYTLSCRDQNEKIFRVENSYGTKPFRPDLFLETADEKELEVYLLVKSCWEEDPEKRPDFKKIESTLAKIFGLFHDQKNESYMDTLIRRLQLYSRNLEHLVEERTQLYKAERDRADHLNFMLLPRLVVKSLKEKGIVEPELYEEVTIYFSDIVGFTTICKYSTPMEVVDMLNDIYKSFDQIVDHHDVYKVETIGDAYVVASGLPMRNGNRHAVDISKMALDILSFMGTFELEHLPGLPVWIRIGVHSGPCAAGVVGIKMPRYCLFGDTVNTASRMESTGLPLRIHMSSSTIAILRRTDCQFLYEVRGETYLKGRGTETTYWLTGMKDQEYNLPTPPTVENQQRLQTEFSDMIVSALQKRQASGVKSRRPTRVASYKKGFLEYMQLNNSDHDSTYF", "experiment": "Cross-reactivity with GCC orthologs (ELISA)", "assay_type": "binding", "source_text": "as §1"}},
  "data": [
    {"substance": "5F9: Human anti-GCC mAb (IgG2, kappa) of hybridoma 5F9, ATCC PTA-8132; VH SEQ ID NO:18, VL SEQ ID NO:20; also engineered as IgG1", "values": [
      {"measurement": "Binding to mouse GCC", "setting": "[1]", "value": "does not bind"},
      {"measurement": "Binding to rat GCC", "setting": "[2]", "value": "does not bind"}
    ]}
  ]
}
